Data: publication PMC3781043, “A Transcript Profiling Approach Reveals an Abscisic Acid-Specific Glycosyltransferase (UGT73C14) Induced in Developing Fiber of Ligon lintless-2 Mutant of Cotton (Gossypium hirsutum L.)” (PLoS ONE, 2013)

How the values were obtained:
[1] = substrate: CC1=CC(=O)CC(C)(C)[C@@]1(O)/C=C/C(C)=C/C(=O)O; test: HPLC-MS of ABA glucoside formed, hyperbolic regression; type: biochemical, Gossypium hirsutum; conditions: 2.5 mM UDP-glucose as sugar donor, 50 mM MgCl2, 500 µM ATP, 50 mM Tris-HCl pH 8.0, 30°C
Excerpt: (§1) HPLC-MS of ABA glucoside formed, hyperbolic regression on UGT73C14

[2] = substrate: CC1=CC(=O)CC(C)(C)[C@@]1(O)/C=C/C(C)=C\C(=O)O; test: as above; type: biochemical, Gossypium hirsutum; conditions: 2.5 mM UDP-glucose as sugar donor, 50 mM MgCl2, 500 µM ATP, 50 mM Tris-HCl pH 8.0, 30°C
Excerpt: as §1

B1: UGT73C14 (Gossypium hirsutum) (protein)
chain: AQGHFVLIPFMAQGHLIPMVDIGRLLAQRGVTVTIVTTPYNAGRVQKSVARAIESGLPIRLLQLQFPGKEVGLIDGVENIDMLHSMEDLIKFVSAANKMEEAMLKLFEKLTPRPNCIISDINLFYTRKIASKFQVPKISFHGFCCFCLLCLRNIQSSKINETVTSDSEYFTVPGLTDKVEFTRVQLPLDNDGSWKEIFEPMWEADRASYGVVINTFEELESAYVKEYRKEKKAWCIGPVSLSHKDELDMAERGNKTSIDGQKCLKWLDSQQPGSVIYACLGSIGTIKCPELIELGLGLEASNKPFIWVLRGNNPTASEVYKWIRRNEFEERTKGRGLVVVGWAPQVLILSHPAIGGFLTHCGWNSIIEGISAGVPLITFPFMGDQFCNEKLAVQILKIGVNLGANKPTMLGDEKSGFILNTEHVKNAIDKLMEQGNEGKEMRKRAKELGDEANKAVEVGGSSYMNITLLIQDILQQSQEMR
notes: about 99 kDa
[1]
  Km: 98.1 µM
  Vmax: 82.9 µmol/min
  kcat: 2.7 s⁻¹
  kcat/Km: 27100 M⁻¹ s⁻¹
[2]
  Km: 61.7 µM
  Vmax: 221 µmol/min
  kcat: 7.2 s⁻¹
  kcat/Km: 115000 M⁻¹ s⁻¹
